Source: patent US20240002495A1 (MITSUBISHI TANABE PHARMA, published 2024)
Where no end group is shown, it is not given here.

Experiments:
[1] = molecular target: T1, recombinant human IL-33 protein (residues 112 to 270) (ILC0701, ATGen Co. Ltd) (human, UniProt O95760 112-270); experiment: KinExA in PBS, neutral-purified IgG
T1 construct: bought protein
T1 sequence: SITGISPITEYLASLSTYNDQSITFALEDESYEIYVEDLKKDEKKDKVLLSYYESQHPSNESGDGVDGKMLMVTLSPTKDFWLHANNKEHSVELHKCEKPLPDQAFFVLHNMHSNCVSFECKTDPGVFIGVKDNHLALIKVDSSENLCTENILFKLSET
Procedure: Each test antibody (IgG) (“antibody (IgG)” indicates an antibody having a molecular form of IgG; hereinafter, the same representation is used) was analyzed to confirm the affinity with the human IL-33 protein by measuring dissociation constant (Kd) between each test antibody and the human IL-33 protein in PBS by kinetic exclusion assay (KinExA) (KinExA3200, available from Sapidyne Instruments, Inc.). Mixture samples of a test antibody and a human IL-33 protein (ILC0701, available from ATGen Co. Ltd) were prepared. The human IL-33 protein was titrated to a constant concentration of test antibody (final concentration: several tens of pM to several hundreds of pM) over a wide concentration range of the human IL-33 protein (so that it covered the concentrations of the human IL-33 protein resulting from 12-step serial doubling dilutions, i.e. one- to 2048-fold, with the upper limit of final concentration set to several nM to several tens of nM). The mixture samples were incubated at a room temperature until the antigen-antibody reaction reached equilibrium. After the reaction reached equilibrium, the percentage of free anti-IL-33 antibody in each sample was analyzed using KinExA3200. The values of Kd were calculated by fitting the plot of percentages of anti-IL-33 antibody not bound to the human IL-33 protein (vertical axis) and concentrations of antigen (horizontal axis) to a theoretical formula, using a KinExA data analysis program (KinExA Pro Software v3.5.3, available from Sapidyne Instruments, Inc.). Beads for capturing the anti-IL-33 antibody were prepared by suspending 50 mg of Azlactone beads (Sapidyne) in 1 mL of coating solution (10 μg/mL human IL-33 protein (ILC0701, available from ATGen Co. Ltd), 50 mM sodium carbonate at pH of 9.6) and incubating the solution at a room temperature for one hour. The antibody for detection used was anti-human F(ab)′2-DyLight649 (Jackson, 309-495-006).

[2] = molecular target: T2, EDESYEIYV (human, not fully specified (N-terminus)); experiment: KinExA, alkaline-purified IgG, peptide
T2 construct: synthetic peptide
T2 peptide: EDESYEIYV
Procedure: (§1) The mixture samples were incubated at a room temperature until the antigen-antibody reaction reached equilibrium. After the reaction reached equilibrium, the percentage of free anti-IL-33 antibody in each sample was analyzed using KinExA3200. The values of Kd were calculated by fitting the plot of percentages of anti-IL-33 antibody not bound to the human IL-33 protein (vertical axis) and concentrations of antigen (horizontal axis) to a theoretical formula, using a KinExA data analysis program (KinExA Pro Software v3.5.3, available from Sapidyne Instruments, Inc.). Beads for capturing the anti-IL-33 antibody were prepared by suspending 50 mg of Azlactone beads (Sapidyne) in 1 mL of coating solution (10 μg/mL human IL-33 protein (ILC0701, available from ATGen Co. Ltd), 50 mM sodium carbonate at pH of 9.6) and incubating the solution at a room temperature for one hour. The antibody for detection used was anti-human F(ab)′2-DyLight649 (Jackson, 309-495-006).
(§2) The anti-IL-33 monoclonal antibodies A10-1C04 and A25-3H04 bound to the epitope PEP14 as described in the Example 1. […] These peptides were synthesized, and the affinity with the alkali-purified antibodies was calculated as Kd by the KinExA experiment as in Example 9 (Table 14).

[3] = molecular target: T3, LEDESYEIYV (human, not fully specified (N-terminus)); experiment: KinExA, alkaline-purified IgG, peptide
T3 construct: synthetic peptide
T3 peptide: LEDESYEIYV
Procedure: as §1, §2

[4] = molecular target: T4, DQSITFALEDESYEIYVEDL (PEP14) (human, not fully specified); experiment: KinExA, alkaline-purified IgG, peptide
T4 peptide: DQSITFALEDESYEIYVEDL
Procedure: as §1, §2

B1: A10-1C04 (IgG) (antibody, V domains shown)
VH: EVQLLESGGGLVQPGGSLRLSCAASGFTFSDYYMNWVRQAPGKGLEWVSSISRYSSYIYYADSVKGRFTISRDNSKNTLYLQMNSLRAEDTAVYYCARDIGGMDVWGQGTLVTVSS
VL: QSVLTQPPSASGTPGQRVTISCTGSSSNIGAVYDVHWYQQLPGTAPKLLIYRNNQRPSGVPDRFSGSKSGTSASLAISGLRSEDEADYYCQTYDSSRWVFGGGTKLTVL
notes: tested as neutral-purified and as alkaline-purified antibody; also called V1; IGN1
Kd [1]: 0.166 nM | Kd [2]: 2070 nM | Kd [3]: 386 nM | Kd [4]: 9 nM
